The record followed here is the supplement of paper PMC5998384.

Series [1] has as its system HeLa Kyoto. Nature of the series: solubility in G1/S (NP-40 vs SDS abundance) (log2 ratio); higher = more soluble. The following applies: cell cycle stage: G1/S.
Series [2] relates to HeLa Kyoto. Description: melting temperature (median over replicates), in situ; higher = more thermally stable.
Series [3] concerns HeLa Kyoto. Description: solubility change mitosis vs G1/S (difference of NP-40 vs SDS log2 ratios) (log2 ratio difference); higher = more soluble in mitosis.
Series [4] deals with HeLa Kyoto. Description: thermal stability score vs G1/S (z-score of summed log2 fold changes over temperatures); higher = more thermally stable than in G1/S.
The mark [5] stands for this setting: cell cycle stage: early G1 (4.5 h after nocodazole release).
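For melting temperature (median over replicates), in situ in this document: HeLa Kyoto cells synchronized by double thymidine or nocodazole block, proteins quantified by TMT10plex mass spectrometry, three independent biological replicates.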
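For solubility change mitosis vs G1/S (difference of NP-40 vs SDS log2 ratios) in this document: synchronized HeLa Kyoto cells (double thymidine block for G1/S, nocodazole release for mitosis), protein amounts in NP-40 versus SDS lysates quantified by mass spectrometry, three biological replicates.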
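For solubility in G1/S (NP-40 vs SDS abundance) in this document: HeLa Kyoto cells arrested at G1/S by double thymidine block, proteins quantified by TMT10plex mass spectrometry in mild NP-40 versus SDS extracts, three biological replicates.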
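For thermal stability score vs G1/S (z-score of summed log2 fold changes over temperatures) in this document: synchronized HeLa Kyoto cells, proteins quantified by TMT10plex mass spectrometry, three biological replicates, mitosis taken 0.5 h after nocodazole release, G1/S directly after double thymidine block.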

Sequence of STK38 (chain, as listed by the source): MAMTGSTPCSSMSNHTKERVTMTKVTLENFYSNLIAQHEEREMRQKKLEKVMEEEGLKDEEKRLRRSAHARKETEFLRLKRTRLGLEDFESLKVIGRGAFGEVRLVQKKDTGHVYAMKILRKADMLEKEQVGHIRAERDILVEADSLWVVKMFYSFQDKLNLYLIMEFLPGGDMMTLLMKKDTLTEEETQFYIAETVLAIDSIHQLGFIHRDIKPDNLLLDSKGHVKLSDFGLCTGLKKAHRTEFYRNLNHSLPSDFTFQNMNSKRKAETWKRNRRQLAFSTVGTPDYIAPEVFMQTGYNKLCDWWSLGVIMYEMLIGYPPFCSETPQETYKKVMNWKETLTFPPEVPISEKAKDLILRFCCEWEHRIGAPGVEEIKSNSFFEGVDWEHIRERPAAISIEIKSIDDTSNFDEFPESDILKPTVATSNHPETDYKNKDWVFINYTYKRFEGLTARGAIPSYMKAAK
Sequence of CYCS (chain, as listed by the source): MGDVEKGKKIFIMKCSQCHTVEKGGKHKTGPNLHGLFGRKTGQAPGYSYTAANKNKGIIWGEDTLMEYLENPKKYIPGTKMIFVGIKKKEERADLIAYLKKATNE

On to “MATAAAAAAVMAPPGCPGSCPNFAVVCSFLERYGPLLDLPELPFPELERVLQAPPPDVGNGEVPKELVELHLKLMRKIGKSVTADRWEKYLIKICQEFNSTWAWEMEKKGYLEMSVECKLALLKYLCECQFDDNLKFKNIINEEDADTMRLQPIGRDKDGLMYWYQLDQDHNVRMYIEEQDDQDGSSWKCIVRNRNELAETLALLKAQIDPVLLKNSSQQDNSSRESPSLEDEETKKEEETPKQEEQKESEKMKSEEQPMDLENRSTANVLEETTVKKEKEDEKELVKLPVIVKLEKPLPENEEKKIIKEESDSFKENVKPIKVEVKECRADPKDTKSSMEKPVAQEPERIEFGGNIKSSHEITEKSTEETEKLKNDQQAKIPLKKREIKLSDDFDSPVKGPLCKSVTPTKEFLKDEIKQEEETCKRISTITALGHEGKQLVNGEVSDERVAPNFKTEPIETKFYETKEESYSPSKDRNIITEGNGTESLNSVITSMKTGELEKETAPLRKDADSSISVLEIHSQKAQIEEPDPPEMETSLDSSEMAKDLSSKTALSSTESCTMKGEEKSPKTKKDKRPPILECLEKLEKSKKTFLDKDAQRLSPIPEEVPKSTLESEKPGSPEAAETSPPSNIIDHCEKLASEKEVVECQSTSTVGGQSVKKVDLETLKEDSEFTKVEMDNLDNAQTSGIEEPSETKGSMQKSKFKYKLVPEEETTASENTEITSERQKEGIKLTIRISSRKKKPDSPPKVLEPENKQEKTEKEEEKTNVGRTLRRSPRISRPTAKVAEIRDQKADKKRGEGEDEVEEESTALQKTDKKEILKKSEKDTNSKVSKVKPKGKVRWTGSRTRGRWKYSSNDESEGSGSEKSSAASEEEEEKESEEAILADDDEPCKKCGLPNHPELILLCDSCDSGYHTACLRPPLMIIPDGEWFCPPCQHKLLCEKLEEQLQDLDVALKKKERAERRKERLVYVGISIENIIPPQEPDFSEDQEEKKKDSKKSKANLLERRSTRTRKCISYRFDEFDEAIDEAIEDDIKEADGGGVGRGKDISTITGHRGKDISTILDEERKENKRPQRAAAARRKKRRRLNDLDSDSNLDEEESEDEFKISDGSQDEFVVSDENPDESEEDPPSNDDSDTDFCSRRLRRHPSRPMRQSRRLRRKTPKKKYSDDDEEEESEENSRDSESDFSDDFSDDFVETRRRRSRRNQKRQINYKEDSESDGSQKSLRRGKEIRRVHKRRLSSSESEESYLSKNSEDDELAKESKRSVRKRGRSTDEYSEADEEEEEEEGKPSRKRLHRIETDEEESCDNAHGDANQPARDSQPRVLPSEQESTKKPYRIESDEEEDFENVGKVGSPLDYSLVDLPSTNGQSPGKAIENLIGKPTEKSQTPKDNSTASASLASNGTSGGQEAGAPEEEEDELLRVTDLVDYVCNSEQL [RSF1]”, for which the “solubility in G1/S (log2)” value in the series on HeLa Kyoto [1] is -1.03. Besides, the melting temperature in the series on HeLa Kyoto [2] (cell cycle stage: G1/S) is 49.1 °C; in the series with HeLa Kyoto [2] (cell cycle stage: mitosis), 51.7 °C. For the same substance, in the series with HeLa Kyoto [3], the “solubility change mitosis (log2)” value amounted to 0.0168. Moreover, the thermal stability score in the series with HeLa Kyoto [4] (setting [5]) was determined as 0.31; in the series on HeLa Kyoto [4] (cell cycle stage: mitosis), 2.21.

CYCS: the “solubility in G1/S (log2)” value in the series on HeLa Kyoto [1] is -0.131. Besides, the melting temperature with HeLa Kyoto [2] (cell cycle stage: G1/S) was found to be 57.1 °C; in the series with HeLa Kyoto [2] (cell cycle stage: mitosis), 52.2 °C. Moreover, in the series on HeLa Kyoto [3], the “solubility change mitosis (log2)” value was 0.139. Besides, the thermal stability score with HeLa Kyoto [4] (setting [5]) was -1.79; in the series with HeLa Kyoto [4] (cell cycle stage: mitosis), -2.79.

As for STK38, the “solubility in G1/S (log2)” value with HeLa Kyoto [1] was -0.0452. Moreover, the melting temperature in the series on HeLa Kyoto [2] (cell cycle stage: G1/S) stood at 48.3 °C; with HeLa Kyoto [2] (cell cycle stage: mitosis) it was 49.1 °C. The “solubility change mitosis (log2)” value in the series with HeLa Kyoto [3] is -0.159. For the same substance, the thermal stability score with HeLa Kyoto [4] (setting [5]) is 0.464; with HeLa Kyoto [4] (cell cycle stage: mitosis), 1.32.

Consider “MSHTEVKLKIPFGNKLLDAVCLVPNKSLTYGIILTHGASGDMNLPHLMSLASHLASHGFFCLRFTCKGLNIVHRIKAYKSVLNYLKTSGEYKLAGVFLGGRSMGSRAAASVMCHIEPDDGDDFVRGLICISYPLHHPKQQHKLRDEDLFRLKEPVLFVSGSADEMCEKNLLEKVAQKMQAPHKIHWIEKANHSMAVKGRSTNDVFKEINTQILFWIQEITEMDKKCH [TEX30]”, for which the “solubility in G1/S (log2)” value in the series with HeLa Kyoto [1] is 0.199. Also, the melting temperature in the series on HeLa Kyoto [2] (cell cycle stage: G1/S) turned out to be 48.7 °C; in the series on HeLa Kyoto [2] (cell cycle stage: mitosis) it was 49 °C. Moreover, the “solubility change mitosis (log2)” value in the series on HeLa Kyoto [3] is -0.146. For the same substance, the thermal stability score in the series with HeLa Kyoto [4] (setting [5]) is 0.36; with HeLa Kyoto [4] (cell cycle stage: mitosis), 0.539.

On to “MASSSVPPATVSAATAGPGPGFGFASKTKKKHFVQQKVKVFRAADPLVGVFLWGVAHSINELSQVPPPVMLLPDDFKASSKIKVNNHLFHRENLPSHFKFKEYCPQVFRNLRDRFGIDDQDYLVSLTRNPPSESEGSDGRFLISYDRTLVIKEVSSEDIADMHSNLSNYHQYIVKCHGNTLLPQFLGMYRVSVDNEDSYMLVMRNMFSHRLPVHRKYDLKGSLVSREASDKEKVKELPTLKDMDFLNKNQKVYIGEEEKKIFLEKLKRDVEFLVQLKIMDYSLLLGIHDIIRGSEPEEEAPVREDESEVDGDCSLTGPPALVGSYGTSPEGIGGYIHSHRPLGPGEFESFIDVYAIRSAEGAPQKEVYFMGLIDILTQYDAKKKAAHAAKTVKHGAGAEISTVHPEQYAKRFLDFITNIFA [PIP4K2C]”, for which the “solubility in G1/S (log2)” value in the series on HeLa Kyoto [1] came to 0.315. Further, the melting temperature came out at 49 °C in the series with HeLa Kyoto [2] (cell cycle stage: G1/S) and 48.7 °C in the series with HeLa Kyoto [2] (cell cycle stage: mitosis). Moreover, the “solubility change mitosis (log2)” value with HeLa Kyoto [3] was -0.07. Besides, the thermal stability score in the series on HeLa Kyoto [4] (setting [5]) turned out to be 0.688; in the series on HeLa Kyoto [4] (cell cycle stage: mitosis), 2.

Take DMXL1: in the series with HeLa Kyoto [1], the “solubility in G1/S (log2)” value was -0.236. In addition, the melting temperature in the series on HeLa Kyoto [2] (cell cycle stage: G1/S) worked out at 51.4 °C; in the series on HeLa Kyoto [2] (cell cycle stage: mitosis), 50.9 °C. In addition, the “solubility change mitosis (log2)” value with HeLa Kyoto [3] was -0.0423. Also, the values for the thermal stability score with HeLa Kyoto [4] (setting [5]) and in the series with HeLa Kyoto [4] (cell cycle stage: mitosis) were 0.592 and 1.02, respectively.

Turning to UGGT1, in the series with HeLa Kyoto [1], the “solubility in G1/S (log2)” value is -0.0908. The values for the melting temperature in the series with HeLa Kyoto [2] (cell cycle stage: G1/S) and with HeLa Kyoto [2] (cell cycle stage: mitosis) were 54.2 °C and 55 °C, respectively. The “solubility change mitosis (log2)” value with HeLa Kyoto [3] was -0.156. The thermal stability score is 3.04 in the series with HeLa Kyoto [4] (setting [5]) and 4.09 in the series with HeLa Kyoto [4] (cell cycle stage: mitosis).
